{"source": "paper PMC5148612", "about": "“Mechanism of cargo-directed Atg8 conjugation during selective autophagy” (eLife, 2016)", "binders": {"B1": {"name": "GST-prApe1(1–45) (domain or fragment, S. cerevisiae, UniProt P14904 1-45, looked up)", "chain": "MEEQREILEQLKKTLQMLTVEPSKNNQIANEEKEKKENENSWCIL", "notes": "prApe1 (precursor aminopeptidase 1), S. cerevisiae, propeptide; also called prApe1 propeptide; cargo mimetic beads; source: E. coli Rosetta pLysS, purified; not shown: GST, N-terminal, kept"}, "B2": {"name": "GST-prApe1(1–45) + Atg19 (complex, S. cerevisiae)", "chain 1": "B1 chain", "chain 2": "MNNSKTNQQMNTSMGYPLTVYDECNKFQLIVPTLDANIMLWCIGQLSLLNDSNGCKHLFWQPNDKSNVRILLNNYDYGHLFKYLQCQRKCSVYIGEGTLKKYNLTISTSFDNFLDLTPSEEKESLCREDAHEDPVSPKAGSEEEISPNSTSNVVVSRECLDNFMKQLLKLEESLNKLELEQKVTNKEPNHRISGTIDIPEDRSELVNFFTELKTVKQLEDVFQRYHDYERLSQECDSKTEIASDHSKKETKIEVEPPNERSLQITMNQRDNSLYFQLFNNTNSVLAGNCKLKFTDAGDKPTTQIIDMGPHEIGIKEYKEYRYFPYALDLEAGSTIEIENQYGEVIFLGKYGSSPMINLRPPSRLSAESLQASQEPFYSFQIDTLPELDDSSIISTSISLSYDGDDNEKALTWEEL", "notes": "prApe1, S. cerevisiae, propeptide; Atg19, S. cerevisiae; formed beforehand on the beads; Atg19 as m17; source: purified proteins from E. coli, assembled on glutathione Sepharose beads and washed; not shown: GST, N-terminal, kept"}, "B3": {"name": "GST-prApe1(1–41) + Atg19 (complex, S. cerevisiae)", "chain 1": "MEEQREILEQLKKTLQMLTVEPSKNNQIANEEKEKKENENS", "chain 2": "B2 chain 2", "notes": "prApe1, S. cerevisiae, propeptide; Atg19, S. cerevisiae; formed beforehand on the beads; Atg19 as m17; also called cargo mimetic beads; source: purified proteins from E. coli, assembled on glutathione Sepharose beads and washed; not shown: GST, N-terminal, kept"}, "B4": {"name": "GFP-Atg8∆R117 (natural protein, S. cerevisiae, UniProt P38182 1-116, looked up)", "chain": "MKSTFKSEYPFEKRKAESERIADRFKNRIPVICEKAEKSDIPEIDKRKYLVPADLTVGQFVYVIRKRIMLPPEKAIFIFVNDTLPPTAALMSAIYQEHKDKDGFLYVTYSGENTFG", "notes": "Atg8, S. cerevisiae, without its last residue R117; also called meGFP-Atg8∆R117; 6xHis-meGFP-Atg8∆R117; source: E. coli Rosetta pLysS, purified; not shown: meGFP, N-terminal, kept"}, "B5": {"name": "GST-prApe1(1–41) (domain or fragment, S. cerevisiae, UniProt P14904 1-41, looked up)", "chain": "B3 chain 1", "notes": "prApe1, S. cerevisiae, propeptide; also called prApe1 propeptide; source: E. coli Rosetta pLysS, purified as a GST fusion protein; not shown: GST, N-terminal, kept"}}, "conditions_in_all_cases": "both partners purified", "key": {"[1]": {"molecular_target": "T1, mCherry-Atg19 (S. cerevisiae, UniProt P35193 1-415)", "T1 construct": "Atg19, S. cerevisiae; also called 6xHis-mCherry-Atg19; source: E. coli Rosetta pLysS, purified via a hexahistidine tag; not shown: mCherry, N-terminal, kept", "T1 sequence (looked up)": "B2 chain 2", "assay": "microscopy-based protein-protein interaction assay on beads; beads with GST-prApe1(1–45) at 5 µM, washed, Atg19 (wild type, mutant or mCherry-Atg19) 5 µM, washed, Atg12~Atg5-Atg16-meGFP 5 µM (Figure 3—figure supplement 2, Figure 6—figure supplement 1)"}, "[2]": {"molecular_target": "T2, Atg19 (S. cerevisiae, UniProt P35193 1-415)", "T2 construct": "Atg19, S. cerevisiae; printed without a tag; also called Atg19 wild type", "T2 sequence (looked up)": "B2 chain 2", "assay": "microscopy-based recruitment to cargo mimetic beads; beads with GST-prApe1(1–45) 25 µM, Atg19 15 µM, Atg12~Atg5-Atg16-mCherry 12.5 µM, washed after each step, with ATTO390-containing SUVs (Figure 6, Figure 6—figure supplement 2)"}, "[3]": {"molecular_target": "T3, Atg12~Atg5-Atg16-meGFP complex (S. cerevisiae, UniProt P38316 1-186; Q12380 1-294; Q03818 1-150, conjugated to Atg5 (Atg12~Atg5 protein conjugate) | conjugated to Atg12)", "T3 construct": "Atg12, S. cerevisiae; Atg5, S. cerevisiae; Atg16, S. cerevisiae; called -eGFP in one legend and -meGFP in the methods; also called Atg12~Atg5-Atg16-eGFP; source: E. coli Rosetta pLysS, purified; not shown: meGFP, C-terminal, kept; copies: + +", "T3 sequence (looked up) 1": "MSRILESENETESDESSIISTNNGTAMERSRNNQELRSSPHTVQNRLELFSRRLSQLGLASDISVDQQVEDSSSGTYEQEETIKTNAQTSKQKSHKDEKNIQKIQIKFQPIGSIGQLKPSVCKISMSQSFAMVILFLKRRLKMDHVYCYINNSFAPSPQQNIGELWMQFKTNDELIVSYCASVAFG", "T3 sequence (looked up) 2": "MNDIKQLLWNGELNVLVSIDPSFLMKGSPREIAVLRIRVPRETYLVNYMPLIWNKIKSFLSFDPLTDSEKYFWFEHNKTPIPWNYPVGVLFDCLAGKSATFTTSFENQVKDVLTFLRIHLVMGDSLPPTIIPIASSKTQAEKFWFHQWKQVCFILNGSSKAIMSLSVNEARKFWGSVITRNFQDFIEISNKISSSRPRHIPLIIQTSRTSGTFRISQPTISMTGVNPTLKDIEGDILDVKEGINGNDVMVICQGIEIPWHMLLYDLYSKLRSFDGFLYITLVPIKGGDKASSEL", "T3 sequence (looked up) 3": "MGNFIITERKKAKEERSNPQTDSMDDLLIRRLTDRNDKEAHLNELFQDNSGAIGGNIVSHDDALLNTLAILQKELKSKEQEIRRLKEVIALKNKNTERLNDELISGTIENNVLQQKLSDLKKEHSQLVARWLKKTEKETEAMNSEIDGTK", "assay": "microscopy-based protein-protein interaction assay on beads; beads with GST-prApe1(1–45) at 5 µM, washed, Atg19 (wild type, mutant or mCherry-Atg19) 5 µM, washed, Atg12~Atg5-Atg16-meGFP 5 µM (Figure 3—figure supplement 2, Figure 6—figure supplement 1)"}, "[4]": {"molecular_target": "T4, Atg12~Atg5-Atg16-mCherry complex (S. cerevisiae, UniProt P38316 1-186; Q12380 1-294; Q03818 1-150, conjugated to Atg5 (Atg12~Atg5 protein conjugate) | conjugated to Atg12)", "T4 construct": "Atg12, S. cerevisiae; Atg5, S. cerevisiae; Atg16, S. cerevisiae; also called Cx; source: E. coli Rosetta pLysS; Atg12~Atg5 conjugate mixed 1:1 with purified Atg16-mCherry, purified by size exclusion chromatography; not shown: His6, N-terminal, cleaved; mCherry, C-terminal, kept; copies: + +", "T4 sequence (looked up) 1": "T3 sequence (looked up) 1", "T4 sequence (looked up) 2": "T3 sequence (looked up) 2", "T4 sequence (looked up) 3": "T3 sequence (looked up) 3", "assay": "microscopy-based recruitment to cargo mimetic beads; beads with GST-prApe1(1–45) 25 µM, Atg19 15 µM, Atg12~Atg5-Atg16-mCherry 12.5 µM, washed after each step, with ATTO390-containing SUVs (Figure 6, Figure 6—figure supplement 2)"}, "[5]": {"molecular_target": "T4, Atg12~Atg5-Atg16-mCherry complex", "assay": "microscopy-based competition assay on beads; beads with GST-prApe1 propeptide (10 µM) and Atg19 (20 µM), Atg12~Atg5-Atg16-mCherry 5 µM; then GFP-Atg8 5 µM (1x) and 50 µM (10x) (Figure 3G)"}, "[6]": {"molecular_target": "B3", "assay": "microscopy-based competition assay on beads; beads with GST-prApe1 propeptide (10 µM) and Atg19 (20 µM), Atg12~Atg5-Atg16-mCherry 5 µM; then GFP-Atg8 5 µM (1x) and 50 µM (10x) (Figure 3G)"}, "[7]": {"molecular_target": "T2, Atg19", "assay": "microscopy-based protein-protein interaction assay on beads; beads with GST-prApe1(1–41) at 25 µM, washed, Atg19 15 µM, washed, Atg12~Atg5-Atg16-mCherry (wild type and mutants) 8.8 µM (Figure 5B, C)"}}, "data": [{"binder": "B1", "values": [{"measurement": "binding result", "setting": "[1]", "value": "binds"}, {"measurement": "binding result", "setting": "[2]", "value": "binds"}]}, {"binder": "B2", "values": [{"measurement": "binding result", "setting": "[3]", "value": "binds"}, {"measurement": "binding result", "setting": "[4]", "value": "binds"}]}, {"binder": "B3", "values": [{"measurement": "binding result", "setting": "[5]", "value": "binds"}]}, {"binder": "B4", "values": [{"measurement": "binding result", "setting": "[6]", "value": "binds"}]}, {"binder": "B5", "values": [{"measurement": "binding result", "setting": "[7]", "value": "binds"}]}]}
